This note sets out measurements from US20110207670.

In series [1] the test system is human TMD1 (soluble thrombomodulin containing the amino terminal domain, EGF domain and ST domain, without signal peptide).
In series [2] the test system is TMD2-I424A (TMD2 in which the isoleucine at position 424 is substituted with alanine).
For series [3], the system named is TM-LE15 (truncated form of TMD2 in which the EGF 6 domain is removed).
For series [4], the system named is human TMD2 (wild-type soluble human thrombomodulin truncated immediately after EGF6, without signal peptide).

TM-LE15 (truncated form of TMD2 in which the EGF 6 domain is removed), sequence (chain, as listed by the source): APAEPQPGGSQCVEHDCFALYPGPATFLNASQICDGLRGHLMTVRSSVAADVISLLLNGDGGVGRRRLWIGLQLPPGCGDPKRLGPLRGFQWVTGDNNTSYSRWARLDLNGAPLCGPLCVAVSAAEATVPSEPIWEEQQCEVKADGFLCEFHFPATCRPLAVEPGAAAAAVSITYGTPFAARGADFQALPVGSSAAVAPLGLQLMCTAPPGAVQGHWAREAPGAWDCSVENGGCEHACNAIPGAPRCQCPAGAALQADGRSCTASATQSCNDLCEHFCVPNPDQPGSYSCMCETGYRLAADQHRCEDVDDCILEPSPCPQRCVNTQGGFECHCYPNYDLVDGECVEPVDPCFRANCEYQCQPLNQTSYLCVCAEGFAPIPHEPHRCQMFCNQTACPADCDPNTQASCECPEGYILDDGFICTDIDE

Take human thrombin: the Vmax (mOD405/min) of human protein C activation in series [1] was determined as 43.3 mOD405/min; in series [2], 6.9 mOD405/min; in series [3] it was 8.3 mOD405/min; in series [4], 39.1 mOD405/min.
